Data reported in article PMC11214633.

Columns and labels:
[1] = biological target: prefusion-stabilized PRD-0038 S2 subunit trimer (PRD-0038 sarbecovirus); test: negative-stain EM
[2] = biological target: prefusion-stabilized SARS-CoV-1 S2 subunit trimer (SARS-CoV-1); test: negative-stain EM

prefusion-stabilized PRD-0038 S2 subunit trimer (domain or fragment)
stoichiometry N [1]: 3

prefusion-stabilized SARS-CoV-1 S2 subunit trimer (domain or fragment)
stoichiometry N [2]: 3
